Test results from PMC9352680, “A comprehensive thermodynamic model for RNA binding by the Saccharomyces cerevisiae Pumilio protein PUF4”.
Changes are numbered by the printed parent chain. Numbers in names are those of the source.

T1: PUF4 RNA-binding domain (Saccharomyces cerevisiae, UniProt P25339 537-888)
T1 sequence: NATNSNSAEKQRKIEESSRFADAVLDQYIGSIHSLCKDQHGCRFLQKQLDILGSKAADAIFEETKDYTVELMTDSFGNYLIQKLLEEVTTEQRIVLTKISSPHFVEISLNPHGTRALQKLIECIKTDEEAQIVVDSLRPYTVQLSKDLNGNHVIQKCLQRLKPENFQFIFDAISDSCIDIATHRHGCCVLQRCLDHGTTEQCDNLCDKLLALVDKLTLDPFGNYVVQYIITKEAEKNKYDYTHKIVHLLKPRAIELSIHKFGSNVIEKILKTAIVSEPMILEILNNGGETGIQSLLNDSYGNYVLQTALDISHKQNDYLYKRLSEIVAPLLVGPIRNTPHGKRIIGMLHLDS

B1: Ie_S1_P3E.2_K3.1_C3.2_[+-2TCC]_H3.1_A3.1_F3.1_T3.2 (ssRNA)
RNA: UCUCUUCUCCUUGUAUAUAUAUCUCUU
B2: Ie_S1_P3E.2_K3.1_C3.2_[+-2CTT]_H3.1_A3.1_F3.1_T3.2 (ssRNA)
RNA: UCUCUUCCUUUUGUAUAUAUAUCUCUU
B3: Ie_S1_P3E.2_K3.1_C3.2_[+-2TCTC]_H3.1_A3.1_F3.1_T3.2 (ssRNA)
RNA: UCUCUUCUCUCUUGUAUAUAUAUCUCUU
B4: Id_iii_S3_P3E.6_K3.2_C3.3_[C-2T]_H3.2_A3.1_F3.1_T3.2 (ssRNA)
RNA: ACAAACUUUUAUAUAUAUAACAAAC
B5: Id_iii_S3_P3E.6_K3.2_C3.3_[T-1C]_H3.2_A3.1_F3.1_T3.2 (ssRNA)
RNA: ACAAACUCCUAUAUAUAUAACAAAC
B6: Ie_S1_P3E.2_K3.1_C3.2_H3.1_[+1TTT]_A3.1_F3.1_T3.2 (ssRNA)
RNA: UCUCUUCUUUUUGUAUAUAUAUCUCUU
B7: Ie_S1_P3E.2_K3.1_C3.2_[+-2CTCT]_H3.1_A3.1_F3.1_T3.2 (ssRNA)
RNA: UCUCUUCCUCUUUGUAUAUAUAUCUCUU
B8: Id_iii_S4_P5E.5_K5.1_C5.3_H5.1_A5.1_F5.1_T5.2_[A12C] (ssRNA)
RNA: UUUGACAACUGAUCGUUCUUUCUUCUUGUAUUAUUAUCUUCUUUCUCGAUCAGUUGUCUUU
B9: Id_iii_S4_P5E.7_K5.3_C5.3_[C-2A]_H5.3_A5.1_F5.1_T5.2 (ssRNA)
RNA: B8 RNA with C25A, U27A, G28C, U29A, A30C, C38A
B10: Id_iii_S4_P5E.7_K5.3_C5.3_[T-1C]_H5.3_A5.1_F5.1_T5.2 (ssRNA)
RNA: B8 RNA with U26C, U27A, G28C, U29A, A30C, C38A
B11: Id_iii_S4_P5E.8_K5.4_C5.3_H5.1_A5.2_F5.1_T5.2_[A12C] (ssRNA)
RNA: B8 RNA with U31A
B12: Id_iii_S4_P5E.7_K5.3_C5.3_[C-2T]_H5.3_A5.1_F5.1_T5.2 (ssRNA)
RNA: B8 RNA with C25U, U27A, G28C, U29A, A30C, C38A
B13: Id_iii_S4_P5E.8_K5.4_C5.3_[C-2G]_H5.1_A5.2_F5.1_T5.2 (ssRNA)
RNA: B8 RNA with C25G, U31A, C38A
B14: Id_iii_S4_P5E.5_K5.1_C5.3_H5.1_A5.1_F5.1_T5.2_[A12T] (ssRNA)
RNA: B8 RNA with C38U
B15: Ib_S1_P5E.1_K5.1_C5.1_H5.1_A5.1_[T5C]_[A7G]_F5.1_T5.1 (ssRNA)
RNA: UCUCUUUGUACUGUUAUCUCUU
B16: Ie_S1_P3E.2_K3.1_C3.2_H3.1_[+1TT]_A3.1_F3.1_T3.2 (ssRNA)
RNA: UCUCUUCUUUUGUAUAUAUAUCUCUU
B17: Id_iii_S3_P3E.7_K3.3_C3.3_H3.3_A3.1_F3.1_T3.2_[A10T] (ssRNA)
RNA: ACAAACUCUACACUAUAUUACAAAC
B18: Id_iii_S3_P4E.7_K4.3_C4.3_[T-1C]_H4.3_A4.1_F4.1_T4.2 (ssRNA)
RNA: ACAAACUCCACACUAUUAGUACAAAC
B19: Id_iii_S3_P3E.7_K3.3_C3.3_[C-2A]_H3.3_A3.1_F3.1_T3.2 (ssRNA)
RNA: ACAAACUAUACACUAUAUAACAAAC
B20: Id_iii_S4_P4E.5_K4.1_C4.3_[C-2A]_H4.1_A4.1_F4.1_T4.2 (ssRNA)
RNA: UUUGACAACUGAUCGUUCUUUCUUAUUGUAUAUUAGUUUCUUUCUCGAUCAGUUGUCUUU
B21: Id_iii_S4_P4E.8_K4.4_C4.3_H4.1_A4.2_F4.1_T4.2_[G10C] (ssRNA)
RNA: B20 RNA with A25C, A32U, G36C
B22: Id_iii_S4_P4E.8_K4.4_C4.3_[T-1G]_H4.1_A4.2_F4.1_T4.2 (ssRNA)
RNA: B20 RNA with A25C, U26G, A32U
B23: Id_iii_S4_P4E.8_K4.4_C4.3_[C-2A]_H4.1_A4.2_F4.1_T4.2 (ssRNA)
RNA: B20 RNA with A32U
B24: Id_iii_S4_P4E.8_K4.4_C4.3_[T-3C]_H4.1_A4.2_F4.1_T4.2 (ssRNA)
RNA: B20 RNA with U24C, A25C, A32U
B25: Id_iii_S4_P4E.8_K4.4_C4.3_H4.1_A4.2_F4.1_T4.2_[T11C] (ssRNA)
RNA: B20 RNA with A25C, A32U, U37C
B26: Id_iii_S4_P4E.8_K4.4_C4.3_[T-1C]_H4.1_A4.2_F4.1_T4.2 (ssRNA)
RNA: B20 RNA with A25C, U26C, A32U
B27: Id_iii_S4_P4E.7_K4.3_C4.3_[C-2A]_H4.3_A4.1_F4.1_T4.2 (ssRNA)
RNA: B20 RNA with U27A, G28C, U29A, A30C
B28: Id_iii_S4_P4E.7_K4.3_C4.3_H4.3_A4.1_F4.1_T4.2_[T11C] (ssRNA)
RNA: B20 RNA with A25C, U27A, G28C, U29A, A30C, U37C
B29: Id_iii_S4_P4E.7_K4.3_C4.3_[C-2G]_H4.3_A4.1_F4.1_T4.2 (ssRNA)
RNA: B20 RNA with A25G, U27A, G28C, U29A, A30C
B30: Id_iii_S4_P4E.6_K4.2_C4.3_[T-1A]_H4.2_A4.1_F4.1_T4.2 (ssRNA)
RNA: B20 RNA with A25C, U26A, G28A
B31: Id_iii_S4_P4E.8_K4.4_C4.3_[C-2T]_H4.1_A4.2_F4.1_T4.2 (ssRNA)
RNA: B20 RNA with A25U, A32U
B32: Ib_S1_P5E.1_K5.1_C5.1_H5.1_A5.1_[T5G]_[A7T]_F5.1_T5.1 (ssRNA)
RNA: UCUCUUUGUAGUUUUAUCUCUU
B33: Ib_S1_P5E.1_K5.1_C5.1_H5.1_A5.1_[T5G]_[A7C]_F5.1_T5.1 (ssRNA)
RNA: UCUCUUUGUAGUCUUAUCUCUU
B34: Ie_S1_P3E.2_K3.1_C3.2_[+-2CTC]_H3.1_A3.1_F3.1_T3.2 (ssRNA)
RNA: UCUCUUCCUCUUGUAUAUAUAUCUCUU
B35: Id_iii_S4_P3E.5_K3.1_C3.3_[C-2G]_H3.1_A3.1_F3.1_T3.2 (ssRNA)
RNA: UUUGACAACUGAUCGUUCUUUCUUGUUGUAUAUAUAUUCUUUCUCGAUCAGUUGUCUUU
B36: Id_iii_S4_P3E.6_K3.2_C3.3_[T-1C]_H3.2_A3.1_F3.1_T3.2 (ssRNA)
RNA: B35 RNA with G25C, U26C, G28A
B37: Id_iii_S4_P3E.7_K3.3_C3.3_[T-1A]_H3.3_A3.1_F3.1_T3.2 (ssRNA)
RNA: B35 RNA with G25C, U26A, U27A, G28C, U29A, A30C
B38: Id_iii_S4_P3E.9_K3.5_C3.3_[T-3G]_H3.1_A3.2_F3.2_T3.2 (ssRNA)
RNA: B35 RNA with U24G, G25C, U31A, U33A
B39: Id_iii_S4_P3E.9_K3.5_C3.3_[T-1A]_H3.1_A3.2_F3.2_T3.2 (ssRNA)
RNA: B35 RNA with G25C, U26A, U31A, U33A
B40: Id_iii_S4_P3E.7_K3.3_C3.3_[T-3A]_H3.3_A3.1_F3.1_T3.2 (ssRNA)
RNA: B35 RNA with U24A, G25C, U27A, G28C, U29A, A30C
B41: Id_iii_S4_P3E.5_K3.1_C3.3_[T-1A]_H3.1_A3.1_F3.1_T3.2 (ssRNA)
RNA: B35 RNA with G25C, U26A
B42: Id_iii_S4_P3E.7_K3.3_C3.3_H3.3_A3.1_F3.1_T3.2_[A10C] (ssRNA)
RNA: B35 RNA with G25C, U27A, G28C, U29A, A30C, A36C
B43: Id_iii_S4_P3E.9_K3.5_C3.3_H3.1_A3.2_F3.2_T3.2_[A10C] (ssRNA)
RNA: B35 RNA with G25C, U31A, U33A, A36C
B44: Id_iii_S4_P3E.8_K3.4_C3.3_[T-1C]_H3.1_A3.2_F3.1_T3.2 (ssRNA)
RNA: B35 RNA with G25C, U26C, U31A
B45: Id_iii_S4_P3E.9_K3.5_C3.3_[C-2T]_H3.1_A3.2_F3.2_T3.2 (ssRNA)
RNA: B35 RNA with G25U, U31A, U33A
B46: Id_iii_S4_P3E.8_K3.4_C3.3_H3.1_A3.2_F3.1_T3.2_[A10G] (ssRNA)
RNA: B35 RNA with G25C, U31A, A36G
B47: Id_iii_S4_P3E.6_K3.2_C3.3_[C-2G]_H3.2_A3.1_F3.1_T3.2 (ssRNA)
RNA: B35 RNA with G28A
B48: Id_iii_S4_P3E.7_K3.3_C3.3_[C-2G]_H3.3_A3.1_F3.1_T3.2 (ssRNA)
RNA: B35 RNA with U27A, G28C, U29A, A30C
B49: Id_iii_S4_P3E.6_K3.2_C3.3_H3.2_A3.1_F3.1_T3.2_[A10C] (ssRNA)
RNA: B35 RNA with G25C, G28A, A36C
B50: Ie_S1_P3E.2_K3.1_C3.2_[+-1TCT]_H3.1_A3.1_F3.1_T3.2 (ssRNA)
RNA: UCUCUUCUUCUUGUAUAUAUAUCUCUU
B51: Id_iii_S3_P3E.7_K3.3_C3.3_[T-3A]_H3.3_A3.1_F3.1_T3.2 (ssRNA)
RNA: ACAAACACUACACUAUAUAACAAAC
B52: Id_iii_S3_P3E.6_K3.2_C3.3_H3.2_A3.1_F3.1_T3.2_[T9C] (ssRNA)
RNA: ACAAACUCUUAUAUAUACAACAAAC
B53: Ie_S1_P3E.2_K3.1_C3.2_[+-2CC]_H3.1_A3.1_F3.1_T3.2 (ssRNA)
RNA: UCUCUUCCCUUGUAUAUAUAUCUCUU
B54: Ie_S1_P3E.2_K3.1_C3.2_[+-2T]_H3.1_A3.1_F3.1_T3.2 (ssRNA)
RNA: UCUCUUCUUUGUAUAUAUAUCUCUU
B55: Ib_S1_P5E.1_K5.1_C5.1_H5.1_A5.1_[T5C]_[A7T]_F5.1_T5.1 (ssRNA)
RNA: UCUCUUUGUACUUUUAUCUCUU
B56: Ie_S1_P3E.2_K3.1_C3.2_[+-2TC]_H3.1_A3.1_F3.1_T3.2 (ssRNA)
RNA: UCUCUUCUCUUGUAUAUAUAUCUCUU
B57: Ib_S1_P5E.1_K5.1_C5.1_H5.1_A5.1_[T5C]_[A7C]_F5.1_T5.1 (ssRNA)
RNA: UCUCUUUGUACUCUUAUCUCUU
B58: Id_iii_S3_P3E.7_K3.3_C3.3_[T-1A]_H3.3_A3.1_F3.1_T3.2 (ssRNA)
RNA: ACAAACUCAACACUAUAUAACAAAC

What follows are binders tested against T1, PUF4 RNA-binding domain (assay: Mg; RNA-MaP; 20 mM Na-HEPES pH 7.4, 30 mM KOAc, 0.75 mM MgCl2, 0.1% Tween-20, 5% glycerol, 0.1 mg/mL BSA, 2 mM DTT; 25 C; 0.0125-409.6 nM protein). Conditions: tags: N-His6-TEV cleaved; C-SNAP kept, Cy3B-labelled; label: tethered on chip by stalled RNA polymerase.

Row | Binder | Kd
1 | B1 | 4.39 nM
2 | B2 | 5.14 nM
3 | B3 | 4.58 nM
4 | B4 | 598 nM
5 | B5 | 218 nM
6 | B6 | 5.49 nM
7 | B7 | 4.97 nM
8 | B8 | 1.71 nM
9 | B9 | 1020 nM
10 | B10 | 543 nM
11 | B11 | 2.73 nM
12 | B12 | 513 nM
13 | B13 | 11.1 nM
14 | B14 | 1.28 nM
15 | B15 | 7.89 nM
16 | B16 | 5.47 nM
17 | B17 | 922 nM
18 | B18 | > 2300 nM
19 | B19 | 32.5 nM
20 | B20 | 0.43 nM

Row | Binder | Kd
21 | B21 | 1.79 nM
22 | B22 | 1.14 nM
23 | B23 | 1.14 nM
24 | B24 | 0.631 nM
25 | B25 | 1.04 nM
26 | B26 | 0.819 nM
27 | B27 | 91.7 nM
28 | B28 | > 2300 nM
29 | B29 | 1.75 nM
30 | B30 | 7.5 nM
31 | B31 | 0.755 nM
32 | B32 | 27.2 nM
33 | B33 | 93.7 nM
34 | B34 | 7.17 nM
35 | B35 | 1.77 nM
36 | B36 | 33.1 nM
37 | B37 | 137 nM
38 | B38 | 25.8 nM
39 | B39 | 48.5 nM
40 | B40 | 364 nM

Row | Binder | Kd
41 | B41 | 1.71 nM
42 | B42 | 611 nM
43 | B43 | 308 nM
44 | B44 | 2.97 nM
45 | B45 | 34.5 nM
46 | B46 | 14.2 nM
47 | B47 | 20.4 nM
48 | B48 | 0.724 nM
49 | B49 | 131 nM
50 | B50 | 4.28 nM
51 | B51 | 760 nM
52 | B52 | 693 nM
53 | B53 | 7.06 nM
54 | B54 | 4.55 nM
55 | B55 | 3.92 nM
56 | B56 | 4.74 nM
57 | B57 | 9.68 nM
58 | B58 | 1780 nM
